From the supplement of paper PMC9732359 come the findings set out here.

± gives the uncertainty stated by the source.

The series in a line: protein stability index of a GFP-peptide fusion (yeast GPS) (PSI 1-4); higher = more stable; sorted into four equal gates, so the index is relative within each strain. In outline: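 Yeast carrying a pooled library were grown to mid-log phase in leucine-free medium. Each library plasmid expresses Cherry and has a tiled 17-residue yeast protein peptide fused downstream of GFP. Cells were sorted into four equal gates by GFP/Cherry ratio, and plasmids from each gate were PCR-amplified, Illumina-sequenced and assigned to strains by barcode. Summing, across gates, the read frequency times the gate number gave each peptide's protein stability index.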

On to KYNRYEKRHKNVPVHVS [RPS11A], for which the protein stability index (doa10∆) came out at 1.61 ± 0.041, the protein stability index (pdr5∆) was 1.66 ± 0.044, the protein stability index (san1∆) was found to be 1.69 ± 0.092 and the protein stability index (ubr1∆) was determined as 1.94 ± 0.055.
As to VVSCSQHGFEVQVGPMK [RPB7], the protein stability index was determined as 3.09 ± 0.12 (doa10∆), 3.15 ± 0.098 (pdr5∆), 3.02 ± 0.089 (san1∆) and 3.23 ± 0.12 (ubr1∆).
In the case of AKPDEKKNDEVSKPAFS [YJL041W/NSP1], the protein stability index by setting is: (pdr5∆) 3.11 ± 0.19; (san1∆) 2.94 ± 0.29; (ubr1∆) 3.2 ± 0.14.
As to LYAERVQDRGLSAVAQA [RPS3], the protein stability index was determined as 3.09 ± 0.069 (doa10∆), 3.28 ± 0.065 (pdr5∆), 3.3 ± 0.09 (san1∆) and 3.22 ± 0.044 (ubr1∆).
For ENVILGQMAPIGTGAFD [RPO21] the same measures were 2.33 ± 0.11, 2.37 ± 0.13, 2.36 ± 0.12 and 2.54 ± 0.056.
In the case of FDEGTTLLSPKDNGMLI [RPO21], the protein stability index runs as follows: (doa10∆) 2.7 ± 0.066; (pdr5∆) 2.45 ± 0.067; (san1∆) 2.91 ± 0.061; (ubr1∆) 1.96 ± 0.065.
For PEILRFKVYEPLLLVGL [RPS16A] the same measures were 2.01 ± 0.12, 2.31 ± 0.098, 2.1 ± 0.18 and 2.65 ± 0.068.
For SHLFNEYSYVDSNMDSI [RPN4] the same measures were 3.26 ± 0.1, 3.56 ± 0.087, 2.93 ± 0.1 and 3.06 ± 0.069.
The matching figures for IRYNSVEIQEVPRTADR [RPC82]: 2.52 ± 0.063, 2.64 ± 0.044, 2.88 ± 0.079 and 2.79 ± 0.048.
SRPASYGYFSVGKRVPI [SIR4] registered a protein stability index (doa10∆) of 2.31 ± 0.19, a protein stability index (pdr5∆) of 2.14 ± 0.11 and a protein stability index (san1∆) of 2.15 ± 0.13.
As for LSNSNRFELHGDMTNSD [REC8], the protein stability index reads like this: (doa10∆) 2.82 ± 0.14; (pdr5∆) 3.13 ± 0.16; (san1∆) 2.58 ± 0.14; (ubr1∆) 2.7 ± 0.2.
Turning to LSISVPSDVNIDVMKSQ [SNU114], the protein stability index runs as follows: (doa10∆) 2.86 ± 0.057; (pdr5∆) 2.84 ± 0.057; (san1∆) 2.57 ± 0.053; (ubr1∆) 2.78 ± 0.044.
As to IDQVMMSVSDNDQALIK [RET1], the protein stability index (doa10∆) amounted to 2.9 ± 0.054, the protein stability index (pdr5∆) was determined as 3.06 ± 0.066, the protein stability index (san1∆) was determined as 3.13 ± 0.048 and the protein stability index (ubr1∆) was 3.01 ± 0.051.
The matching figures for RTAPKSDNVYLKLLVKL [RPL18A]: 2.6 ± 0.092, 2.8 ± 0.093, 2.7 ± 0.089 and 3.03 ± 0.068.
As for RGSSSLYTLVINDAGKA [RPL38], the protein stability index reads like this: (doa10∆) 1.57 ± 0.061; (pdr5∆) 1.26 ± 0.068; (san1∆) 1.17 ± 0.13; (ubr1∆) 1.12 ± 0.086.
The matching figures for STMGTPTVHNSTAAAPI [PGD1]: 2.83 ± 0.095, 3.07 ± 0.059, 2.76 ± 0.06 and 2.93 ± 0.049.
For TANATAELNLPTVDEQR [SNF11] the same measures were 3.04 ± 0.035, 3.14 ± 0.032, 2.99 ± 0.043 and 3.147 ± 0.026.
Consider RSISKELIVSEEIPINS [SIR3], for which the protein stability index (doa10∆) stood at 2.07 ± 0.051, the protein stability index (pdr5∆) came out at 2.09 ± 0.051, the protein stability index (san1∆) is 2.07 ± 0.07 and the protein stability index (ubr1∆) amounted to 1.99 ± 0.036.
The matching figures for REGLIDTAVKTAETGYI [RPO21]: 1.13 ± 0.058, 1.37 ± 0.099, 1.23 ± 0.18 and 1.13 ± 0.051.
For HLDSFNYFVDTDLKKII [RET1] the same measures were 2.69 ± 0.094, 2.85 ± 0.08, 2.67 ± 0.1 and 2.64 ± 0.038.
As for KLNIETMRKISSETDDD [DSN1], the protein stability index turned out to be 2.56 ± 0.074 (doa10∆), 2.27 ± 0.13 (pdr5∆) and 2.77 ± 0.12 (san1∆).
Regarding LDYVRTPAAATSPIDIR [SNF2], the protein stability index was 2.33 ± 0.056 (doa10∆), 2.45 ± 0.063 (pdr5∆), 2.14 ± 0.077 (san1∆) and 2.36 ± 0.045 (ubr1∆).
The matching figures for HFFQIDGFNKTFHDELN [YML103C/NUP188]: 1.67 ± 0.07, 2.04 ± 0.12, 2.67 ± 0.14 and 2.85 ± 0.091.
For SSQLNKLTDEQSSLDVA [SIR3] the same measures were 2.66 ± 0.088, 2.93 ± 0.081, 2.65 ± 0.09 and 2.97 ± 0.056.
For ILKSLKNRSNRKRFHSQ [YOR098C/NUP1] the same measures were 3.08 ± 0.061, 3.22 ± 0.066, 3.03 ± 0.081 and 3.11 ± 0.042.
Turning to LNRSHFATTKAECISLI [ECM29], the protein stability index was 1.51 ± 0.061 (doa10∆), 2 ± 0.051 (pdr5∆), 1.69 ± 0.092 (san1∆) and 1.66 ± 0.038 (ubr1∆).
As to YQMQSNYESVFTYNKFL [YIL149C/MLP2], the protein stability index stood at 1.29 ± 0.043 (doa10∆), 1.23 ± 0.028 (pdr5∆), 1.55 ± 0.14 (san1∆) and 1.5 ± 0.048 (ubr1∆).
The matching figures for NYYYLFDKKSFFNGKAL [PRP8]: 2.55 ± 0.046, 2.16 ± 0.043, 2.91 ± 0.055 and 2.38 ± 0.037.
The matching figures for LILGLNTSIAQFDIQSP [YML103C/NUP188]: 1.94 ± 0.044, 1.81 ± 0.045, 2.29 ± 0.071 and 2.6 ± 0.044.
The matching figures for KGEEAKLDSKKTVPFQV [SSN3]: 3.27 ± 0.087, 3.37 ± 0.055, 3.2 ± 0.097 and 3.23 ± 0.066.
DHKFPIRENKVTYSRVS [BRN1] had a protein stability index (doa10∆) of 2.75 ± 0.13, a protein stability index (pdr5∆) of 2.9 ± 0.11, a protein stability index (san1∆) of 3.01 ± 0.097 and a protein stability index (ubr1∆) of 2.66 ± 0.087.
The matching figures for RQMNLVITLLNNSSITL [YCS4]: 1.37 ± 0.05, 1.18 ± 0.039, 1.19 ± 0.08 and 1.35 ± 0.035.
In the case of DTVSWFKQKYDADVLDK [RPL11A], the protein stability index (doa10∆) worked out at 2.06 ± 0.044, the protein stability index (pdr5∆) stood at 1.74 ± 0.044, the protein stability index (san1∆) worked out at 1.64 ± 0.077 and the protein stability index (ubr1∆) was determined as 1.97 ± 0.039.
For FGNSLSNTVNANNYSSN [YDL088C/ASM4] the same measures were 2.94 ± 0.084, 3 ± 0.09, 3.08 ± 0.072 and 3.18 ± 0.056.
Regarding LIPFIVKQVLLSVEIGV [NUT1], the protein stability index stood at 1.57 ± 0.031 (doa10∆), 1.6 ± 0.031 (pdr5∆), 1.56 ± 0.059 (san1∆) and 1.74 ± 0.036 (ubr1∆).
For the sequence LKGIQEFGADWYKVAKN [SWI3], the protein stability index is, setting by setting: (doa10∆) 3.25 ± 0.071; (pdr5∆) 3.34 ± 0.072; (san1∆) 3.37 ± 0.043; (ubr1∆) 3.34 ± 0.057.
For IKELLNITKNLKTFNGS [POP4], the protein stability index is, setting by setting: (doa10∆) 1.99 ± 0.13; (pdr5∆) 2 ± 0.064; (san1∆) 2.46 ± 0.056; (ubr1∆) 2.21 ± 0.047.
